Laboratory results published in the RNAGym collection of RNA variant scans (doi:10.1073/pnas.2313332121).
Variants at the floor of the assay were thinned out.

B1: TPR 5TU (parent)
chain: GGAUCUUCUCGAUCUAACAAAAAAGACAAAUCUGCCACAAAGCUUGAGAGCAUCUUCGGAUGCAGAGGCGGCAGCCUUCGGUGGCGCGAUAGCGCCAACGUUCUCAACUAUGACACGCAAAACGCGUGCUCCGUUGAAUGGAGUUUAUCAUG

Variants of: B1
Test: polymerase ribozyme fitness, log enrichment relative to wild type (log ratio); higher = more active; in vitro selection for triplet polymerase activity
In short: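 Genotype fitness is the logarithm of its enrichment divided by wild-type enrichment, using inverse-variance-weighted averages of replicates. That logarithm is base 2. Enrichment was measured by Illumina sequencing of input and output libraries from one triplicate in vitro selection round, with frozen incubation at −7 °C, on PCR-built, transcribed mutant libraries of each subunit of a heterodimeric triplet polymerase ribozyme, retaining genotypes with ≥10 input reads and ≥1 read per output.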

Question: Which “polymerase ribozyme fitness (log ratio)” value does the source give for GGAUCUUCUCGAUCUAACAAAAAAGACAAAUCUGCCACAAAGCUUGAGAGCAUCUUCGGAUGCAGAGGCGGCAGCCUUCGGUGGCGAGUUAGCGCCAACGUUCUCAACUAUGACACGCAAAACGCGUGCUCCGUUGAAUGGAGUUUAUCAUG [C87A A89U] here?
Answer: ≤ -4.2

Question: With GGAUCUUCUCGAUCUAACAAAAAAGACAAAUCUGCCACAAAGCUUGAGAGCAUCUUCGGAUGCAGAGGCGGCAGCUUUCGGUGGGGCGAUAGCGCCAACGUUCUCAACUAUGACACGCAAAACGCGUGCUCCGUUGAAUGGAGUUUAUCAUG [C76U C85G] as the variant, how does the “polymerase ribozyme fitness (log ratio)” value read?
Answer: -0.632

Question: Which “polymerase ribozyme fitness (log ratio)” value does the source give for GGAUCUUCUCGAUCUAACAAAAAAGACAAAUCUGCCACAAAGCUUGAGAGCAUCUACGGAUGCAGAGGCGGCAGCCUUCGGUGUCGCGAUAGCGCCAACGUUCUCAACUAUGACACGCAAAACGCGUGCUCCGUUGAAUGGAGUUUAUCAUG [U56A G84U] here?
Answer: -1.11

Question: Which “polymerase ribozyme fitness (log ratio)” value does the source give for GGAUCUUCUCGAUCUAACAACAAAGACAAAUCUGCCACAAAGCUUGAGAGCAUCUUCGGAUGCAGAGGCGGCAGCCUUCGGUGGCGCGAUAGCGCUAACGUUCUCAACUAUGACACGCAAAACGCGUGCUCCGUUGAAUGGAGUUUAUCAUG [A21C C96U] here?
Answer: 0.207

Question: With GGAUCUUCUCGAUCUAACAAAAAAGACAAAUCUGCCACAAAGCUUGAGAGCAUCUUCGGAUGCAGAGGCGGCAGCCUUCGGUGGCGCGAUGGCGCCAACGUUCUCAACUAUGACACGGAAAACGCGUGCUCCGUUGAAUGGACUUUAUCAUG [A91G C118G G143C] as the variant, how does the “polymerase ribozyme fitness (log ratio)” value read?
Answer: ≤ -4.2

Question: For GGAUCUUCUCGAUCUAACUAAAAAGACAAAUCUGCCAUAAAGCUUGAGAACAUCUUCGGAUGCAGAGGCGGCAGCCUUAGGUGGCGCGAUAGCGCCAACGUUCUCAACUAUGACACGCAAAACGCGUGCUCCGUUGAAUGGAGUUUAUCAUG [A19U C38U G50A C79A], which “polymerase ribozyme fitness (log ratio)” value is on record?
Answer: ≤ -4.2

Question: For GGAUCUUCUCGAUCUAACAAAAAAGACAACUCUGCCACAAAGCUUGAGAGCAUCUUCGGAUGCAGAGGCGGCAGCCUUCGGUGGCGCGAUAACGCCAACGUUCACCAAUAUGACACGCAAAACGCGUGCUCCGUUGAAUGGAGUUUAUCAUG [A30C G92A U104A A106C C108A], which “polymerase ribozyme fitness (log ratio)” value is on record?
Answer: ≤ -4.2

Question: Which “polymerase ribozyme fitness (log ratio)” value does the source give for GGAUCUUCUCGAUCUAACAAAAAAGACAAAUCUGCCACAAAGCUUGAGAGCAUCUCCGGAUGCAGAGGCGGCAGCCUGCGGUGGUGCGGUAGCGCCAACGUUCUCAACUAUGACACGCAAAACGCGUGCUCCGUUGAAUGGAGUUUAUCAUG [U56C U78G C85U A89G] here?
Answer: ≤ -4.2

Question: For GGAUCUUCUCGAUCUAACAAAAAAGACAAAUCUGCCACAAAGCUUGAGAGCAUCUUCGGAUGCAGAGGCGGCAGCCUUCGGUGGCGAGAUAGCGCCGACGUUCUCAACUAUGACACGCAAAACGCGUGCUCCGUUGAAUGGCGUUUAUCAUG [C87A A97G A142C], which “polymerase ribozyme fitness (log ratio)” value is on record?
Answer: ≤ -4.2

Question: Which “polymerase ribozyme fitness (log ratio)” value does the source give for GGAUCUUCUCGAUAUAACAAAAAAGACAAAUCUGCCAUAAAGCUUGAGAGCAUCUUCGGAUGCAGAGGCGGCAGCCUUCGGUGUCGCGAUAGCGCCAACGUUCUCAACUAUGACACGCAAAACGCGUGCUCCGUUGAAUGGAGUUUAUCAUG [C14A C38U G84U] here?
Answer: -3

Question: With GGAUCUUCUCGAUCUAACAAAAAAGACAAAUCUGCCACAAAGCUUGAGAGCAUCUUCGGAUGCAGAGGCGGCAGCCUUCGGAGGCGCGAUAGGGCCAACGUUCUCAACUAUGACACGCAAAACGCUUGCUCCGUUGAAUGGAGUUUAUCAUG [U82A C93G G126U] as the variant, how does the “polymerase ribozyme fitness (log ratio)” value read?
Answer: -2.84

Question: For GGAUCUUCUCGAUCUAACAAAAAAGACUAAUCUGCCACAAAGCUUGAGAGCAUCUUCGGAUGCAGAGGCGGCAGCCUUCGGUGGCGGGAUAGCGCCAACGUUCUCAACUAUGACACGCAAAACGCGAGCUCCCUUGAAAGGAGUUUAUCAUG [A28U C87G U127A G133C U139A], which “polymerase ribozyme fitness (log ratio)” value is on record?
Answer: -4.15

Question: For GGAUCUUCUCCAUAUGACAAAAAAGACAAAUCUGCCACAAAGCUUGAGAGCAUCUUCGGAUGCAGAGGCGGCAGCCUUCGGUGGCGUGAUAGCGCCAACGUUCUCAACUAUGACACGCAAAACGCGUGCUCCGUUGAAUGGAGUUUAUCAUG [G11C C14A A16G C87U], which “polymerase ribozyme fitness (log ratio)” value is on record?
Answer: ≤ -4.2

Question: For GGAUCUUCUCGAUCUACCAAAAAAGACAAAUCUGCCACAGAGCUUGAGAGCAUCUUCGGAUGCAGAGGCGGCAGCCUUCGGUGGCGCGAUAGCGCCAACGUUCUCAACUAUGACACGCAAAACGCGUGCUCCGUUGAAUGGAGUUUAUCAUG [A17C A40G], which “polymerase ribozyme fitness (log ratio)” value is on record?
Answer: -1.63

Question: For GGAUCUUCUCGAUCUAACACAAAAGACAAAUCUGCCACAAAGCUUGAGAGCAUCUUCGGAUGCAGAGGCGGCAGCCUUCGGUGGCGCGAUAGCGCCGACGUUCUCAACUAUGACACGCAAAACGCGUGCUCCGUUGAAUGGAGUUUAUCAUG [A20C A97G], which “polymerase ribozyme fitness (log ratio)” value is on record?
Answer: -0.83

Question: With GGAUCUUCUCGAGCUAACAAAAAAGACAAAUCUGCUACAAAGCUUGAGAGCGUCGUCGGAUGCAGAGGUGGCAGCGUUCGGUCGCGCGAUAGCGCCAACGUUCUCAACUAUGAUACGCAAAACGCGUGCUCCGUUGAAUGGAGUUUAUAAUG [U13G C36U A52G U55G C69U C76G G83C C114U C149A] as the variant, how does the “polymerase ribozyme fitness (log ratio)” value read?
Answer: ≤ -4.2

Question: Which “polymerase ribozyme fitness (log ratio)” value does the source give for GGAUCUUCUCGAUCUAACAAAAAAGACAAAUCUGCCACAAAGCUUGAGACCGUCUUCGGAUGCAGAGGCGGCAGCCAUCGGUGGCGCGAUAGCGCCAACGUUCUCAACUAUGACACGCAAAACGCGUUCUCCGUUGAAUGGUGUUUAUCAUG [G50C A52G U77A G128U A142U] here?
Answer: ≤ -4.2

Question: Which “polymerase ribozyme fitness (log ratio)” value does the source give for GGAUCUUCUAGAUCUAACAAAAAAGACAAAUGUGCCAUAAAGCUUGAGAGCAUCUGCGGGUGCAGAGGCGGCAGCCUUCGGUGGCGCGAUAGCGACAACGUUCUCAACUAUGACACGCAAAACGCGUGCUUCGUUGAAUUGAGUUUAUCAUG [C10A C32G C38U U56G A60G C95A C131U G140U] here?
Answer: -4.19

Question: Which “polymerase ribozyme fitness (log ratio)” value does the source give for GGAUCUUCUCGAUCUAACAAAAAAGACAAGUCUGCCACAAAGCUUGAGAGCAUCUUCGGAUGCAGAGGCGGCAGCCUUCGGUGGCGAGAUCGCGCCAACGUUCUCAACUUUGACUCGCAAAACGCGUGCUCCGUCGAAUGGAGUUUAUCAUG [A30G C87A A91C A110U A115U U135C] here?
Answer: ≤ -4.2
